B1: zebrafish Otop1 (natural protein, UniProt Q7ZWK8 1-586, looked up)
chain: MVEHGGTDSMWLNKYNPAAASSASSSSSSDAENKLFSRLKVSLTKKYPQKNAELLSAQYGTNLLLLGVSVMLALAAQSGPVKEEHLLSFITVLMLVQLVWMLCYMIRRERERSPVPERDAHAGASWIRGGLTMLALLSLIMDAFRIGYFVGYHSCISAALGVYPIVHALHTISQVHFLWFHIKDVIKKYETFERFGVIHAVFTNLLLWCNGVMSETEHFMHNHRRRLIEMGYANLSTVDVQPHCNCTTSVCSMFSTSLYYLYPFNIEYHIFVSAMLFVMWKNIGRTLDRHSNRKRRSTGSTGLLLGPLGGLVALASSVSVLVVYLIHLEKTEEMHEAAVSMFYYYGVAMMACMCVGSGTGLLVYRMENRPMDTGSNPARTLDTELLLASSLGSWLMSWCSVVASVAEAGQKSPSFSWTSLTYSLLLVLEKCIQNLFIVESLYRRHSEEEEDAAAPQVFSVAVPPYDGILNHGYEAHDKHREAEPAAGSHALSRKQPDAPLPAGQRLDVTPGRKRQILKNICMFLFMCNISLWILPAFGCRPQYDNPLENETFGTSVWTTVLNVAIPLNLFYRMHSVASLFEVFRKV

What was measured:
chicken Otop3 (chicken) = test: cryo-EM structure
cryo-EM structure = biological target: the molecule itself; test: cryo-EM structure

Row | Molecule | stoichiometry N (chicken Otop3 (chicken)) | stoichiometry N (cryo-EM structure)
1 | chicken Otop3 (natural protein) | 2 | –
2 | B1 | – | 2

Source: publication PMC6564688 (Nature structural & molecular biology, 2019)
